Measured values: paper PMC2358973, “A Cysteine Protease Is Critical for Babesia spp. Transmission in Haemaphysalis Ticks” (PLoS Pathogens, 2008)

Legend:
[1] = system: T1, Cc1cc(=O)oc2cc(NC(=O)[C@H](CCCNC(=N)N)NC(=O)[C@H](CCCNC(=N)N)NC(=O)OCc3ccccc3)ccc12; assay: fluorogenic hydrolysis assay, Michaelis-Menten fit; format: biochemical, Haemaphysalis longicornis; conditions: 25 mM citric acid/sodium phosphate, pH 6.0, 5 mM DTT
T1 construct: partial coding region (pPICZC) expressed in Pichia pastoris GS115, HiTrap chelating column purified; precursor 341 residues with 17-residue signal peptide
Source text: (§1) fluorogenic hydrolysis assay, Michaelis-Menten fit on longipain

[2] = system: T2, Cc1cc(=O)oc2cc(NC(=O)[C@H](CCCNC(=N)N)NC(=O)[C@H](Cc3ccccc3)NC(=O)OCc3ccccc3)ccc12; assay: fluorogenic hydrolysis assay, Michaelis-Menten fit; format: biochemical, Haemaphysalis longicornis; conditions: 25 mM citric acid/sodium phosphate, pH 6.0, 5 mM DTT
T2 construct: partial coding region (pPICZC) expressed in Pichia pastoris GS115, HiTrap chelating column purified; precursor 341 residues with 17-residue signal peptide
Source text: as §1

For longipain (Haemaphysalis longicornis), the Km [1] was 16.0 ± 0.2 µM, the kcat [1] was 800 s⁻¹ and the kcat/Km [1] was 5e+07 M⁻¹ s⁻¹. For the same substance, the Km [2] was 12.1 ± 0.08 µM, the kcat [2] was 550 s⁻¹ and the kcat/Km [2] was 4.5e+07 M⁻¹ s⁻¹.
